The values below come from paper PMC6370846.

Series [1] addresses α-synuclein tandem octamer (αS-8), C-terminally Cys-tagged, dye-labelled. The experiment in a line: dual-color fluorescence cross-correlation spectroscopy (FCCS); self-aggregation: Cy5-labelled and Oregon green 488-labelled copies of the same construct mixed in equal volumes (125 µL each) at 536 µM monomer-equivalent, incubated at 310 K with shaking at 250 rpm for up to 24 h; aliquots diluted in PBS to ~134 pM and measured at 298 K; fractions nrg/nr and nrg/ng fitted to single-exponential growth.

Series [2] can be described thus: dual-color fluorescence cross-correlation spectroscopy (FCCS); self-aggregation: Cy5-labelled and Oregon green 488-labelled copies of the same construct mixed in equal volumes (125 µL each) at 536 µM monomer-equivalent, incubated at 310 K with shaking at 250 rpm for up to 24 h; aliquots …. The following applies: other: dual-color fluorescence cross-correlation spectroscopy (FCCS).

In series [3] the target is α-synuclein tandem dimer (αS-2), C-terminally Cys-tagged, dye-labelled. In words: dual-color fluorescence cross-correlation spectroscopy (FCCS); co-aggregation with swapped fluorophores: Cy5-labelled monomer mixed with Oregon green 488-labelled tandem oligomer, equal volumes (125 µL each) at 536 µM monomer-equivalent, 310 K, shaking at 250 rpm, up to 24 h; aliquots diluted in PBS to ~134 pM and measured at 298 K; single-exponential fits.

The target of series [4] is α-synuclein tandem octamer (αS-8), C-terminally Cys-tagged, dye-labelled. The series is described as above.
The target of series [5] is α-synuclein tandem tetramer (αS-4), C-terminally Cys-tagged, dye-labelled. Described as above.
The target of series [6] is α-synuclein monomer (αS-1), C-terminally Cys-tagged, dye-labelled. The experiment in a line: dual-color fluorescence cross-correlation spectroscopy (FCCS); self-aggregation: Cy5-labelled and Oregon green 488-labelled copies of the same construct mixed in equal volumes (125 µL each) at 536 µM monomer-equivalent, incubated at 310 K with shaking at 250 rpm for up to 24 h; aliquots diluted in PBS to ~134 pM and measured at 298 K; fractions nrg/nr and nrg/ng fitted to single-exponential growth.

Series [7] has as its target α-synuclein tandem dimer (αS-2), C-terminally Cys-tagged, dye-labelled. The experiment in a line: dual-color fluorescence cross-correlation spectroscopy (FCCS); co-aggregation: Cy5-labelled tandem oligomer mixed with Oregon green 488-labelled monomer, equal volumes (125 µL each) at 536 µM monomer-equivalent, 310 K, shaking at 250 rpm, up to 24 h; aliquots diluted in PBS to ~134 pM and measured at 298 K; single-exponential fits.

Series [8] has as its target α-synuclein tandem octamer (αS-8), C-terminally Cys-tagged, dye-labelled. The description is as above.
Series [9] has as its target α-synuclein tandem tetramer (αS-4), C-terminally Cys-tagged, dye-labelled. The description is as above.
Series [10] addresses α-synuclein tandem dimer (αS-2), C-terminally Cys-tagged, dye-labelled. The experiment in a line: dual-color fluorescence cross-correlation spectroscopy (FCCS); self-aggregation: Cy5-labelled and Oregon green 488-labelled copies of the same construct mixed in equal volumes (125 µL each) at 536 µM monomer-equivalent, incubated at 310 K with shaking at 250 rpm for up to 24 h; aliquots diluted in PBS to ~134 pM and measured at 298 K; fractions nrg/nr and nrg/ng fitted to single-exponential growth.

Series [11] has as its target α-synuclein tandem tetramer (αS-4), C-terminally Cys-tagged, dye-labelled. The series is described as above.

Regarding “α-synuclein tandem octamer (αS-8), C-terminally Cys-tagged, dye-labelled”, in series [1], the k of nrg/ng (rate of exponential growth of aggregation) worked out at 0.06 h⁻¹ and the k of nrg/nr (rate of exponential growth of aggregation) was determined as 0.15 h⁻¹. In series [2], the “percent incorporated into dual-color aggregates after 24 hr” value is reported as ~35% of Cy5-labelled αS-8; the |A| of nrg/ng (extent, percent of Oregon green-labelled species in dual-color aggregates) stood at 26%; the |A| of nrg/nr (extent, percent of Cy5-labelled species in dual-color aggregates) came to 29%.
Take “α-synuclein monomer (αS-1), C-terminally Cys-tagged, dye-labelled (natural protein)”: in series [3], the k of nrg/ng (rate of exponential growth of co-aggregation) came out at 0.2 h⁻¹; the k of nrg/nr (rate of exponential growth of co-aggregation) is 0.2 h⁻¹; the |A| of nrg/ng (extent, percent of Oregon green-labelled αS-2 in dual-color co-aggregates) was determined as 4%; the |A| of nrg/nr (extent, percent of Cy5-labelled αS-1 in dual-color co-aggregates) stood at 5%. Moreover, in [4], the k of nrg/ng (rate of exponential growth of co-aggregation) stood at 0.2 h⁻¹; the k of nrg/nr (rate of exponential growth of co-aggregation) was 0.05 h⁻¹; the |A| of nrg/ng (extent, percent of Oregon green-labelled αS-8 in dual-color co-aggregates) was determined as 11%; the |A| of nrg/nr (extent, percent of Cy5-labelled αS-1 in dual-color co-aggregates) was found to be 4%. Besides, in series [5], the k of nrg/ng (rate of exponential growth of co-aggregation) is 0.5 h⁻¹; the k of nrg/nr (rate of exponential growth of co-aggregation) is 2 h⁻¹; the |A| of nrg/ng (extent, percent of Oregon green-labelled αS-4 in dual-color co-aggregates) amounted to 20%; the |A| of nrg/nr (extent, percent of Cy5-labelled αS-1 in dual-color co-aggregates) was determined as 1%. In [6], the k of nrg/ng (rate of exponential growth of aggregation) is 0.035 h⁻¹ and the k of nrg/nr (rate of exponential growth of aggregation) was 0.043 h⁻¹. Further, in [7], the k of nrg/ng (rate of exponential growth of co-aggregation) turned out to be 0.4 h⁻¹; the k of nrg/nr (rate of exponential growth of co-aggregation) worked out at 0.11 h⁻¹; the |A| of nrg/ng (extent, percent of Oregon green-labelled αS-1 in dual-color co-aggregates) is 1.7%; the |A| of nrg/nr (extent, percent of Cy5-labelled αS-2 in dual-color co-aggregates) stood at 4%. In series [8], the k of nrg/ng (rate of exponential growth of co-aggregation) came to 0.4 h⁻¹; the k of nrg/nr (rate of exponential growth of co-aggregation) came out at 0.12 h⁻¹; the |A| of nrg/ng (extent, percent of Oregon green-labelled αS-1 in dual-color co-aggregates) came to 1%; the |A| of nrg/nr (extent, percent of Cy5-labelled αS-8 in dual-color co-aggregates) was 40%. Further, in [9], the k of nrg/ng (rate of exponential growth of co-aggregation) was found to be 0.8 h⁻¹; the k of nrg/nr (rate of exponential growth of co-aggregation) is 0.23 h⁻¹; the |A| of nrg/ng (extent, percent of Oregon green-labelled αS-1 in dual-color co-aggregates) was 2%; the |A| of nrg/nr (extent, percent of Cy5-labelled αS-4 in dual-color co-aggregates) amounted to 11%.
As for “α-synuclein tandem dimer (αS-2), C-terminally Cys-tagged, dye-labelled”, in series [10], the k of nrg/ng (rate of exponential growth of aggregation) came out at 0.2 h⁻¹ and the k of nrg/nr (rate of exponential growth of aggregation) came to 0.23 h⁻¹. In addition, in series [2], the “percent incorporated into dual-color aggregates after 24 hr” value is “only ~5% of αS-1 and αS-2”; the |A| of nrg/ng (extent, percent of Oregon green-labelled species in dual-color aggregates) stood at 4%; the |A| of nrg/nr (extent, percent of Cy5-labelled species in dual-color aggregates) stood at 5%.
Regarding “α-synuclein tandem tetramer (αS-4), C-terminally Cys-tagged, dye-labelled”, in series [11], the k of nrg/ng (rate of exponential growth of aggregation) was 0.18 h⁻¹ and the k of nrg/nr (rate of exponential growth of aggregation) came to 0.17 h⁻¹. Also, in series [2], the “percent incorporated into dual-color aggregates after 24 hr” value is ~15% of Cy5-labelled αS-4; the |A| of nrg/ng (extent, percent of Oregon green-labelled species in dual-color aggregates) turned out to be 17%; the |A| of nrg/nr (extent, percent of Cy5-labelled species in dual-color aggregates) is 14%.
Regarding “α-synuclein monomer (αS-1), C-terminally Cys-tagged, dye-labelled”, in [2], the “percent incorporated into dual-color aggregates after 24 hr” value was “only ~5% of αS-1 and αS-2”; the |A| of nrg/ng (extent, percent of Oregon green-labelled species in dual-color aggregates) amounted to 8%; the |A| of nrg/nr (extent, percent of Cy5-labelled species in dual-color aggregates) stood at 6%.
